Data on 6 molecules can be found in US20250320284A1 (AC IMMUNE, published 2025).

By EC50 is commonly meant the concentration needed to bring the measured effect to its halfway point. A word on the koff: it is the rate constant with which the complex falls apart. As a reminder, the kon is the second-order rate constant of association.

Assay [1] addresses T1, CARD domain of human ASC (human, UniProt Q9ULZ3 107-195).
T1 construct: biotinylated in BLI; also called hCARD; human CARD
T1 sequence: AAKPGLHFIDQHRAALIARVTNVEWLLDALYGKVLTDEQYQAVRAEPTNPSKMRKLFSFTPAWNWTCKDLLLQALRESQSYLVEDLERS
Nature of the assay: ELISA, coated hCARD.

The target in assay [2] is T2, human ASC (apoptosis associated speck-like protein containing a caspase-recruitment domain) (human, UniProt Q9ULZ3 1-195).
T2 construct: recombinant hASC in ELISA and SPR; endogenous ASC (cytoplasmic or specks) in Western blot and immunofluorescence; also called hASC; PYCARD
Nature of the assay: SPR affinity mode, mAb captured.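 Also: Single-cycle SPR kinetics with mAbs captured on goat anti-mouse antibody, double-referenced against blank flow cell and buffer cycle, fitted by a 1:1 kinetic model.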

For assay [3], the target named is T3, PYD domain of human ASC (human, UniProt Q9ULZ3 1-91, limits assumed).
T3 construct: biotinylated in BLI; His/MBP-tagged in the alanine ELISA; also called hPYD; human PYD
The assay is described as follows: ELISA, coated hPYD.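 Also: monoclonal antibody binding to plate-coated human ASC PYD measured by ELISA, with a phosphatase substrate absorbance read-out and EC50 from a variable slope curve fit.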

The target of assay [4] is T1, CARD domain of human ASC. The assay is described as follows: BLI binning on CARD, competitor 2629E8D1-Ab1.
In assay [5] the target is T1, CARD domain of human ASC. The assay is described as follows: BLI binning on CARD, competitor 2609F4A9-Ab1.
For assay [6], the target named is T1, CARD domain of human ASC. Nature of the assay: BLI binning on CARD, competitor 2504F3D9-Ab1.
Assay [7] deals with T1, CARD domain of human ASC. Nature of the assay: BLI binning on CARD, competitor 32B6C7-Ab1.
The target of assay [8] is T2, human ASC (apoptosis associated …). The assay is described as follows: cell-based or functional assay.
Assay [9] addresses T1, CARD domain of human ASC. The assay is described as follows: BLI binning on CARD, competitor 18F4C12-Ab1.
The target of assay [10] is T1, CARD domain of human ASC. Nature of the assay: BLI binning on CARD, competitor 2622E12F11-Ab1.
Assay [11] concerns the target T2, human ASC (apoptosis associated …). Nature of the assay: ELISA, coated hASC.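 Also: antibody binding to plate-coated recombinant human ASC, read as phosphatase substrate absorbance, EC50 from four-parameter variable-slope fit.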
The target in assay [12] is T4, mouse ASC (mouse, UniProt Q9EPB4 1-193).
T4 construct: recombinant mASC in ELISA and SPR; endogenous ASC of J774.A1 cells in Western blot and immunofluorescence; also called mASC
T4 sequence: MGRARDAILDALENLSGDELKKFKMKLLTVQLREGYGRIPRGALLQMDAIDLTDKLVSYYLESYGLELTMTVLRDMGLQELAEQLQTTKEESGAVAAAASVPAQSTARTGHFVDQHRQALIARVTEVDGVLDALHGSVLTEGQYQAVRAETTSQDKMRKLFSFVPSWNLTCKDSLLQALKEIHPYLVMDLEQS
Nature of the assay: ELISA, coated mASC.

The target in assay [13] is T2, human ASC (apoptosis associated …). The assay is described as follows: SPR avidity mode, ASC immobilized.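 Also: Single-cycle SPR kinetics on Biacore T200, antibodies injected at 1.2–100 nM (3-fold steps), 300 s association, 900 s dissociation, double-referenced, 1:1 kinetic model fit.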
For assay [14], the target named is T4, mouse ASC. Nature of the assay: SPR affinity mode, mAb captured.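 Also: Single-cycle SPR kinetics with mAbs captured on goat anti-mouse antibody, double-referenced against blank flow cell and buffer cycle, fitted by a 1:1 kinetic model.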
The target of assay [15] is T3, PYD domain of human ASC. The assay is described as follows: BLI binning on PYD, competitor 31F10C5-AB1.
The target of assay [16] is T3, PYD domain of human ASC. Nature of the assay: BLI binning on PYD, competitor 2617C3A8-AB1.
Assay [17] addresses T3, PYD domain of human ASC. Nature of the assay: BLI binning on PYD, competitor 23E5F7-AB2.
Assay [18] has as its target T3, PYD domain of human ASC. The assay is described as follows: BLI binning on PYD, competitor 22D3A6-AB1.
The target of assay [19] is T4, mouse ASC. The assay is described as follows: cell-based or functional assay.
The target in assay [20] is T3, PYD domain of human ASC. The assay is described as follows: BLI binning on PYD, competitor 26A1G2-AB1.
In assay [21] the target is T3, PYD domain of human ASC. Nature of the assay: BLI binning on PYD, competitor 2626B9D3-AB1.
For assay [22], the target named is T3, PYD domain of human ASC. The assay is described as follows: BLI binning on PYD, competitor 2610H7D3-AB1.
Assay [23] deals with T4, mouse ASC. The assay is described as follows: cell-based or functional assay. The source holds these as a separate data set.
Assay [24] has as its target T2, human ASC (apoptosis associated …). The assay is described as follows: cell-based or functional assay. The source holds these as a separate data set.
In assay [25] the target is T3, PYD domain of human ASC. Nature of the assay: BLI binning on PYD, competitor 416E6G4-AB1.
The target in assay [26] is T3, PYD domain of human ASC. Nature of the assay: BLI binning on PYD, competitor 401H9B7-AB1.
The target of assay [27] is T4, mouse ASC. The assay is described as follows: SPR affinity mode, steady-state fit, apparent KD; SPR affinity mode, mAb captured, mASC in solution; steady-state fit, apparent KD.
The target in assay [28] is T4, mouse ASC. The assay is described as follows: ELISA, coated mASC; ELISA on mASC protein.

T3 sequence (Q9ULZ3 1-91 limits assumed): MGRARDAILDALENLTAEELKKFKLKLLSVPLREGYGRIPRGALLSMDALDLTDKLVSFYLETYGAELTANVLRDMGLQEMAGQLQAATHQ

B1: ACI-8016-2504F3D9-AB1 (antibody, V domains shown)
VH: DVKLVESGEGLVKPGGSLKLSCAVSGFTFSNYAMSWVRQTPEKRLEWVAYISSGGDFIYYRDTVKGRFTISRDNARNTLYLQMSSLKSEDTAMYYCILQLRPEAWFAYWGQGTLVTVSA
VL: DIKMTQSPSSMYASLGERVTITCKASQDIKNYLSWFQQIPGKSPKTLIYRANRLVDGVPSRFSGSGSGQDYSLTISSLEYEDMGIYYCLQYYEFPYTFGGGTKLEIK
As for B1, the EC50 in the assay with CARD domain of human ASC [1] was found to be 0.13 nM; in [11], 0.19 nM. The molecule further returned a Kd in assay [2] of 8.3 nM. In assay [2], this molecule yielded a koff of 0.000723 s⁻¹. The same molecule gave a kon in assay [2] of 89300 M⁻¹ s⁻¹. Moreover, in the assay with PYD domain of human ASC [3], the binding result was “no binding”. The normalized binding response amounted to 20% in the assay with CARD domain of human ASC [4]; 17% with CARD domain of human ASC [5]; 0% with CARD domain of human ASC [6]; 21% with CARD domain of human ASC [7]; 76% in the assay with CARD domain of human ASC [9]; 19% with CARD domain of human ASC [10]. The “IL-1β release, human monocytic cell line, IC50” value in assay [8] amounted to 16.7 nM.

B2: ACI-8016-402H11C9-Ab1 (antibody, V domains shown)
VH: QVQLQQSGAELARPGASVKMSCKASGYTFTTYTMHWVKQRPGQGLEWIGYINPSSGYTYYNQNFKDKATLTADKSSSTAYMQLSNLASDDSAVYYCALGGNPAWFAYWGQGTLVTVSA
VL: DIVLTQSPATLSVTPGDSVSLSCRASQSIGNNLHWYQHKSHESPRLLIKYASQSISGIPSRFSGSESGTDFTLSINSVETEDFGIYFCQQSKSWPWTFGGGTKLEIK
Take B2: the EC50 (with CARD domain of human ASC [1]; in assay [11]) was 0.06 nM throughout. The Kd in assay [2] amounted to 0.55 nM; in [13], 10.5 nM. This molecule gave a koff in assay [2] of 0.00019 s⁻¹. In [2], this molecule registered a kon of 360000 M⁻¹ s⁻¹. For the same molecule, the binding result in the assay with PYD domain of human ASC [3] and in the assay with mouse ASC [12] was “no binding” in each case.

B3: ACI-8016-407E10A9-AB1 (antibody, V domains shown)
VH: EVQLVESGGGFVKPGGSLKLSCAASGFTFSNYAMSWVRQTPEKRLEWVATIYSGGIFTYYPDSVKGRFTISRDSAKNTLYLQMTSLRSEDTAIYYCARLGGSYWGQGTLVTVSA
VL: QAVVTQESALTTSPGETVTLTCRSSTGAVTTNNYANWVQEKPDHFFTGLIGGTDNRPPGVPARFSGSLIGDKAALTITGAQTEDEAIYFCALWYNNHWVFGGGTKLTVL
B3: the EC50 came out at 0.07 nM in the assay with CARD domain of human ASC [1] and 0.06 nM in assay [11]. The values for the Kd in assay [2] and in assay [13] were 0.11 nM and under 0.01 nM, respectively. The koff in assay [2] is 1.5e-05 s⁻¹; in [13], 5.6e-07 s⁻¹. The kon in assay [2] came to 130000 M⁻¹ s⁻¹; in assay [13], 110000 M⁻¹ s⁻¹. Besides, the binding result with PYD domain of human ASC [3] and in the assay with mouse ASC [12] was “no binding” throughout.

B4: ACI-8016-31F10C5-AB1 (antibody, V domains shown)
VH: QVQLQQSEPELARPGASVKLSCTASGYTFINYGVSWVRQRTGQGLEWIGRIYPRSGNTRFNEKFQGKATLTADTSSSTAYMELRSLTSEDSAVYFCTRFPYAFSGNSYWYFDVWGTGTTVTVSS
VL: DIVMTQSHKFMSTSIGDRVSITCKASQDVSAAVAWYQQKPGQSPKLLIYSSSFRYTGVPDRFTGSASGTDFTFTITTVQAEDLAVYYCQQHFDTPYTFGGGTKLEIK
notes: also called 936.31F10C5
For B4, the binding result with CARD domain of human ASC [1] is recorded as “no binding”. For the same molecule, the Kd with mouse ASC [14] stood at 0.36 nM; in [2], 0.16 nM. Besides, the values for the koff (with mouse ASC [14]; in [2]) were 0.000314 s⁻¹ and 0.000199 s⁻¹, respectively. In addition, the kon with mouse ASC [14] came to 886000 M⁻¹ s⁻¹; in assay [2], 1.23e+06 M⁻¹ s⁻¹. Further, the normalized binding response is 1% with PYD domain of human ASC [15]; 3% with PYD domain of human ASC [16]; 2% in the assay with PYD domain of human ASC [17]; 3% in the assay with PYD domain of human ASC [18]; 0% with PYD domain of human ASC [20]; 49% with PYD domain of human ASC [21]. In addition, the normalized binding response amounted to 2% in the assay with PYD domain of human ASC [22], 4% with PYD domain of human ASC [25] and 79% in the assay with PYD domain of human ASC [26]. Besides, the results for the concentration for a half-maximal effect (EC50) (with PYD domain of human ASC [3]; in the assay with mouse ASC [12]; in assay [11]) were 0.18 nM, 0.3 nM and 0.24 nM, respectively. In the assay with mouse ASC [19], the “% IL-1β inhibition, mouse primary microglia, 420 nM mAb” value was found to be 90.5%. For the same molecule, the “IL-1β release, human monocytic cell line, IC50” value in assay [8] was found to be 33 nM. Besides, the “Mouse ASC polymerization assay, IC50” value with mouse ASC [23] came out at 34.8 nM. Besides, in assay [24], the “Human ASC polymerization assay, IC50” value came to 6.3 nM.

B5: ACI-8016-203G8B10-AB1 (antibody, V domains shown)
VH: EVKLEESGGGLVHPGGSMKLSCVASGFTFSNYWMNWVRQSPEKGLEWVAQIRLKSENYATHSAESVKGRLTISRDDSKSSVYLQMNNLRAEDTGIYYCLAGWGLDYWGQGTTLTVSS
VL: DIVMTQAAFSNPVTLGTSASISCRSSKTLLHSDGFTYLYWYLQRPGQSPQLLIHRVSNLASGVPNRFSGSESGTDFTLRISRVEPEDVGVYYCAQMLELPLTFGSGTKLELK
For the molecule B5, the binding result with CARD domain of human ASC [1] and with mouse ASC [12] was “no binding” throughout. In addition, the Kd in assay [2] was found to be 1.34 nM; in [13] it was 0.35 nM. Moreover, the koff came out at 0.00017 s⁻¹ in assay [2] and 2.9e-05 s⁻¹ in assay [13]. For the same molecule, the figures for the kon in assay [2] and in [13] were 130000 M⁻¹ s⁻¹ and 83000 M⁻¹ s⁻¹, respectively. In addition, the EC50 in the assay with PYD domain of human ASC [3] worked out at 0.08 nM; in assay [11] it was 0.09 nM.

B6: ACI-8016-2626B9D3-AB1 (antibody, V domains shown)
VH: QVQLQQPGTELVKPGASVKLSCRASGWTHWVKQRPGQGLEWIGNINLSNGRTNYNEKFRAMATLTVDKSSSTAYTQLSSLTSEDSAVYYCANSMVPHFFPMDYWGQGTSVTVSS
VL: NIVMTQYPKSMSLSIGERVTLRCKASENVGSYVSWYQQKPEQSPKLLIYGASNRYTGVPDRFTGSGSATDFILTITSVQAEDLADYHCGQSYNYPLTFGAGTKLELK
On to B6, for which the Kd in the assay with mouse ASC [27] was determined as 34.4 nM. In addition, in the assay with mouse ASC [19], the “% IL-1β inhibition, mouse primary microglia, 420 nM mAb” value turned out to be 52%. Further, in the assay with mouse ASC [23], the “Mouse ASC polymerization assay, IC50” value was determined as 27.3 nM. This molecule had an EC50 with mouse ASC [28] of 0.38 nM.
